# Test: yeast display, Sf9 membrane polyspecificity reagent, FACS + sequencing; frameworks hold sequencing errors
# In short: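 Nanobodies came from a synthetic yeast display library in Saccharomyces cerevisiae BJ5465, induced with galactose for 36–48 hours and stained for 1 hour at 4 °C with 10% biotinylated, detergent-solubilized Sf9 membrane reagent. Cells were enriched on streptavidin microbeads and then FACS-sorted, with low and high (top ~1%) gates set on anti-HA fluorescence for expression and streptavidin fluorescence for reagent binding. Each polyreactivity label reflects the gate a clone came from. Genes were amplified by colony PCR, sequenced by MiSeq 2 × 250 and filtered by CDR length.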
row,Sequence,polyreactivity (PSR sort gate)
1,QVQLVESGGGLVQAGGSLRLSCADSGRTFSPYAMGWYRQAPGKDRELVAAITSGGRTNFADSVKGRFTISRDNAKNTVYLQMNSLKPEDTAVYYCAARSGRYRWTRFDYWGQGTQVTVSS,low polyreactivity
2,QVQLVESGGGLVQAGGSLRLSCADSGRTFSSYAMGWYRQAPGKERELVARISSSGGRTSYADSVKGRFTISRDNAKNTVYLQMNSLKPEDTAVYYCAKTYHWLYDYWGQGTQVTVSS,high polyreactivity
3,QVQLVESGGGLVQAGGSLRLSCADSGRTFYRYAMVWYRQSPGKERELVAAITTSGGSTYYADSVKGRFTISRDNAKNTVYLQMNSLKPEDTAVYYCAATYYGYHIRDDYWGQGTQVTVSS,low polyreactivity
4,QVQLVESGGGLVQAGGSLRLSCADSGRTFYYYAMGWYRQAPGKERELVASITYYADSVKGRFTISRDNAKNTVYLQMNSLKPVDTAVYYCAKDLYSNDLYRRYDYWGQGTQVTVSS,low polyreactivity
5,QVQLVESGGGLVQAGGSLRLSCADSGSIFRSYDMGRYSQAPGKERELVAGISYSGGSTYYADSVKRRFTISRDNAKNTVYLQMNSLKPEDTAVYYCNVDGGTYFFFVGAWGEYDYWGQGTQVTVSS,low polyreactivity
6,QVQLVESGGGLVQAGGSLRLSCADSGSIFYYNAMGWYRQAPGKERELVAAISVSGGSTYYADSVKGRFTISRDNAKNTVYLQMNSLKPEDTAVYYCAAEWLYYYWLPGRADYLEYDYWGQGTQVTVSS,low polyreactivity
7,QVQLVESGGGLVQAGGSLRLSCADSGSILGNAMVWYRQAPGKERELVAAITRGVSTYYADSVKGRFTISRDNAKNTVYLQMNSLKPEDTAVYYCYKTYVRGVHGVYLPITSYDYWGQGTQVTVSS,low polyreactivity
8,QVQLVESGGGLVQAGGSLRLSCADSGSILVAKGMGWYRQAPGKESELVAGITTRGGNTYYADSVKGRFTISRDNAKNTVYLQMNSLKPEDTAVYYCAADHLSYRRRYEYWGQGTQVTVSS,low polyreactivity
9,QVQLVESGGGLVQAGGSLRLSCADSGSTFEYNDMGWYRQEPGKERELVASSTYYADSVQGRFTISRDNAKNTVYLQMNSLKPEDTAVYFCAREQGVNRNHDYWGQGTLVTVSS,low polyreactivity
10,QVQLVESGGGLVQAGGSLRLSCADSGSTFFRYAMGWYRQAPGKERELVAAISKSGASTYYADSVKGRFTISRDNAKNTVYLQMNSLKPEDTAVYYCNADVKKSSAREWQYGYDYWGQGTQVTVSS,low polyreactivity
11,QVQLVESGGGLVQAGGSLRLSCADSGSTFLYYGMGWYRQAPGKERELVAGIDGTGSSTYYADSVKGRFTISRDNAKNTVYLQMNSLKPEDTAVYYCAKRYPRYRSRYYYWGQGTQVTVSS,low polyreactivity
12,QVQLVESGGGLVQAGGSLRLSCADSGSTFPGYTMGWYRQAPGKERELVAAIDGSAGDTYYADSVKGRVTISRDNAKNTVYLQMNSLKPEDTEVYYCAADGPYDYSPWLMYYWGQGTQVTVSS,low polyreactivity
13,QVQLVESGGGLVQAGGSLRLSCADSGSTFRFNAMGWYRQAPGKERDLVAAISQSGGSTRYADSVKGRFTISRDNAKNTVYLQMNSLKPEDTAVYYCAARRRWLPGYAWQVAYDSWGQGTQVTVSS,high polyreactivity
14,QVQLVESGGGLVQAGGSLRLSCADSGSTFTRYAIGWYRQAPGKEMEFVAAISWSGGITYYADSVKGRFTISRDNAKNTVYFQMKSLKPEDTAVYYCAAKRRYTRGGYGVDYWGQGTQVTVSS,high polyreactivity
15,QVQLVESGGGLVQAGGSLRLSCADSGSTFVLNAMGWYRQAPGKERELVAAISRCGASTYYADSVKGRFTISRDNAKNTVYLQMNSLKPEDTAVYYCNASGYGPGVVIYLVLYDYWGQGTQVTVSS,low polyreactivity
16,QVQLVESGGGLVQAGGSLRLSCADSGSTFWFYAMGWYRQAPGKERELVAVISNSGSTYYADSVKGRYTISRDNAKNTVSLQMNSLKPEDTAVYYCNKDGGGDSYWYVYWGQGTQVTVSS,low polyreactivity
17,QVQLVESGGGLVQAGGSLRLSCADSGVIFVGYAMGGYRQAHGKERELVASIDGRVGSTYYADSVKGRFTISRDNAKITVYLQMNSLKPEDTAVYYCAAGGRAVRIYWGYYRTSYDYWGQGTQVTVSS,low polyreactivity
18,QVQLVESGGGLVQAGGSLRLSCADSGYIFYPYTMGWYRQAPGKEMELDAAITWSGSTYYADSVKGRFTISRDNAKNTVYLQMNSLKPEDTAVYYCAADFDSYDSYTYLQYDYWGQGTQVTVSS,low polyreactivity
19,QVQLVESGGGLVQAGGSLRLSCADTGLILVLNAMGCYRQAPGKERELVADITSGGSTYYADSVKGRFTISRDNAKNSVYLQMNSLKPEDTAVYYCATDQGGYYENDYWGQGTKVTVSS,low polyreactivity
20,QVQLVESGGGLVQAGGSLRLSCAESGLILAGYTMGWYRQAPGKESELVAAISDRGGSTYYADSVKGRFTISRDNAKNTVYLQMNSLKPEDTAVYYCNAFVYSYALTPSYAGDYWGQGTQVTVSS,low polyreactivity

row,Sequence,polyreactivity (PSR sort gate)
1,QVQLVESGGGLVQAGGSLRLSCAGSGFIFAQNTMGWYRQAPGKERELVAAITRRGGSTYYADSVKGRFTISRDNAKTTVYLQMNSLKPEDTAVYYCARATVGAWRKMYSWGQGTQVTVSS,high polyreactivity
2,QVQLVESGGGLVQAGGSLRLSCAGSGGIFGSNAMGWYREAPGKERALVAAISWRGGSTYYADSVKGRFTISRDNAKNSVYLQMNSLKPEDTAGYYCAARYRWGYSTSYSYRFHYWGQGTQVTVSS,high polyreactivity
3,QVQLVESGGGLVQAGGSLRLSCAGSGGPFLDYIGWYRQAPGKEMVLVAAITFSGGSTYYADSVKGRLTISRENAKNTVYVQMNSLKPDDTAVYFCAAGWYDWPKYLLGGYTYYLYDSWRQGTQVTVSS,low polyreactivity
4,QVQLVESGGGLVQAGGSLRLSCAGSGSTFHPYAMGWYRQAPGKVRELVAAITWGGGSTYYADSVKGRITISRDNAKNTVYLQMNSLKPEDTAVYYCNAYTLYWPDYDYWGQGTQVTVSS,low polyreactivity
5,QVQLVESGGGLVQAGGSLRLSCAGSGSTFLYYAMGWYRQAPGKERELVAVITYSDGGTYYADSVKGRFTISRDNAKNTVYLEMNSLKPEDTAVYYCAKDYRAYAGHYTWTWHEYGYWGQGTQVTVSS,low polyreactivity
6,QVQLVESGGGLVQAGGSLRLSCAGSGSTSYNDMGWYRQAPGKEREMGASITSSGDDTYYADSVKGRFTISRDNAKNTVYLQMNSLKPEDTAVYYCAAEDYHRHVGSDFVIDYDYWGQGTQVTVSS,low polyreactivity
7,QVQLVESGGGLVQAGGSLRLSCAGSGYIFAYNTIGWYRQAPGKERELVAAISRSGGSTYYPDSVKGRFTISRDNAKNTVYLQMNSLKPEDTAVYYCAARYSGYRVGQRSFCYWGQGTQVTVSS,high polyreactivity
8,QVQLVESGGGLVQAGGSLRLSCAHSGSSFYRYSMRWYIQAPGKERELDAAISTSGGRTYYADSVKGRFSISRDNAKNTVYLQMNSLKPEDTAVYYCAADQYRYYRSTYDYWGQGTQVTVSS,high polyreactivity
9,QVQLVESGGGLVQAGGSLRLSCAPSGFIFQANAMGWYRQAPGKERELLAAIDDGDSTYADSVKGRFTISRDNAKNTVYLQLNSLKPEDTAVYFCATRRNRSYDYWGQGTQVTVSS,low polyreactivity
10,QVQLVESGGGLVQAGGSLRLSCAPSGFIYHWNAMGWYRQAPGKERELLAAITWRGTNTYYADSVKGRFTISRDNAKNTVYLQMNRLKPEDTAVYYCAARYVTYYGTFDYWGLGTQVTVSS,low polyreactivity
11,QVQLVESGGGLVQAGGSLRLSCAPSGFTFGLYAMGWYRQAPGKERELVAAISWSGGRTYYADSVKGRFTISRDNAKNTVYLQMNSLKPEDTAVYYCAAVNKARSEDYGYWGQGTQVTVSS,high polyreactivity
12,QVQLVESGGGLVQAGGSLRLSCAPSGFTFGSNAMGWYRQAPGKERELVAAITWRGGSTYYADSVKGRFTISRDNAKNTVYLQMNSLKPEDTAVYYCAAVRSASSWQYIWLKYYYWGQGTQVTVSS,high polyreactivity
13,QVQLVESGGGLVQAGGSLRLSCAPSGFTFLWYAMGWYRQAPGKERELVAGISSDGSTNADSVKGRFTISRDNAKNTVYLQMNSLKPEDTAVYYCDADYSSPWQAVQGDDYWGQGTQVNVSS,low polyreactivity
14,QVQLVESGGGLVQAGGSLRLSCAPSGFTFRYYAMAWYRQAPGKEREFVAAISWSGGSTYYADSVKGRFTISRDNAKNTVYLQMNSLKPEDTAVYYCAAYYPLWGWGYDYWGQGTQVTVSS,high polyreactivity
15,QVQLVESGGGLVQAGGSLRLSCAPSGFTFSRYAMGWYRQAPGKERELVAAITRGGGNTYYADSVKGRFTISRDNAKNTVYLQMNSLKPEDTAVYYCNAQVGNFGYRSGGYDYWGQGTQVTVSS,high polyreactivity
16,QVQLVESGGGLVQAGGSLRLSCAPSGFTIGYYAMGWYRQAPGKEMELVAGISFSGTSTYYADSVKGRFTFSRDNAKNTVYLLMNSLKPEDTAVYYCNKVYYSAASKHKEYWGQGTQVTVSS,high polyreactivity
17,QVQLVESGGGLVQAGGSLRLSCAPSGFTSWQYAMGWYRPAPGKERELVAAISVSGASTYYADSVKGRFTISRDNAKNTVYLQMNSLKPEDTAVYYCAAAYVRYPTTRYFYWGQGTQVTVSS,high polyreactivity
18,QVQLVESGGGLVQAGGSLRLSCAPSGGTFWIYAMGWYRQAPGKERELVAGITTSGATTYYADSVKGRFTISRDNAKNTVYLQMNSLKPEDTAVYYCAAVIRPRYYQVRPRYDYWGQGTQVTVSS,low polyreactivity
19,QVQLVESGGGLVQAGGSLRLSCAPSGGTYIYAIGWYRQAPGKERDLVAVITSRSGSTYYADSVKGRFTISRDNAKNTVYLQMISLKPEDTAVYYCAAYTRVRTDPGTSFGYWGQCTQVTVSS,high polyreactivity
20,QVQLVESGGGLVQAGGSLRLSCAPSGIIFKGYAMGWSRQAPGKERELVAAISHNADSTYADSVKGRFTISRDNAKNTVYLQMNSLKPEDTAVYYCNADYLYHQTSRGKYYSWGQGTQVTVSS,low polyreactivity
